Laboratory results reported in patent US20170037111A1, “Novel peptides and combination of peptides for use in immunotherapy against ovarian cancer and other cancers” (immatics biotechnologies GmbH, priority 2015, published 2017).

Target: HLA-A*02:01 (Homo sapiens, UniProt P04439, D140Y/D185E/D98H/E176V/E277Q/G131W/G231S/I119V/I121R/I166T/I218V/L300P/L318F/N151K/N90K/P208A/P217A/Q86G/Q94H/R138H/R169H/T345S)
Assay: MHC binding assay (UV-ligand exchange, β2m ELISA, peptide exchange yield)
Settings: MHC class I binding score; binding to HLA-A*02:01 ranged by peptide exchange yield (UV-ligand exchange, β2m ELISA)
Method in brief: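 Binding is expressed as peptide exchange yield: stabilized MHC complexes were quantified by β2m ELISA, with a 450 nm TMB read-out on streptavidin-coated plates. Complexes came from UV-ligand exchange, where UV irradiation cleaves a photolabile peptide so the candidate peptide can load.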

Substance	Peptide exchange
573 (ILVANAIVGV; listed as Homo sapiens) [compound 573]	″+++″ (≧50% = +++)
574 (YLLQEPPRTV; listed as Homo sapiens) [compound 574]	″++″ (≧20% = ++)
575 (YLISQVEGHQV; listed as Homo sapiens) [compound 575]	″+++″ (≧50% = +++)
576 (ILLNNSGQIKL; listed as Homo sapiens) [compound 576]	″++++″ (≧75% = ++++)
577 (VMFEDGVLMRL; listed as Homo sapiens) [compound 577]	″+++″ (≧50% = +++)
578 (FLDPGGPMMKL; listed as Homo sapiens) [compound 578]	″+++″ (≧50% = +++)
579 (NLMEMVAQL; listed as Homo sapiens) [compound 579]	″++″ (≧20% = ++)
580 (LLMENAERV; listed as Homo sapiens) [compound 580]	″++″ (≧20% = ++)
582 (TLCDVILMV; listed as Homo sapiens) [compound 582]	″+++″ (≧50% = +++)
583 (ILANDGVLLAA; listed as Homo sapiens) [compound 583]	″+++″ (≧50% = +++)
584 (ALAEVAAMENV; listed as Homo sapiens) [compound 584]	″+++″ (≧50% = +++)
585 (ALWDLAADKQTL; listed as Homo sapiens) [compound 585]	″++++″ (≧75% = ++++)
586 (KLKPGDLVGV; listed as Homo sapiens) [compound 586]	″+++″ (≧50% = +++)
587 (VMNDRLYAI; listed as Homo sapiens) [compound 587]	″+++″ (≧50% = +++)
588 (SLLPLSHLV; listed as Homo sapiens) [compound 588]	″+++″ (≧50% = +++)
589 (KLYPQLPAEI; listed as Homo sapiens) [compound 589]	″+++″ (≧50% = +++)
590 (SLIEKLWQT; listed as Homo sapiens) [compound 590]	″++″ (≧20% = ++)
591 (SMAELDIKL; listed as Homo sapiens) [compound 591]	″+++″ (≧50% = +++)
592 (RLLSAAENFL; listed as Homo sapiens) [compound 592]	″+++″ (≧50% = +++)
593 (GLPRFGIEMV; listed as Homo sapiens) [compound 593]	″+++″ (≧50% = +++)
594 (IMLKGDNITL; listed as Homo sapiens) [compound 594]	″+++″ (≧50% = +++)
595 (VLLSIYPRV; listed as Homo sapiens) [compound 595]	″+++″ (≧50% = +++)
596 (ALLDQTKTLAESAL; listed as Homo sapiens) [compound 596]	″+++″ (≧50% = +++)
597 (KLLEGQVIQL; listed as Homo sapiens) [compound 597]	″+++″ (≧50% = +++)
598 (FLFPHSVLV; listed as Homo sapiens) [compound 598]	″+++″ (≧50% = +++)

Substance	Peptide exchange
599 (YLLNDASLISV; listed as Homo sapiens) [compound 599]	″+++″ (≧50% = +++)
600 (ALAAPDIVPAL; listed as Homo sapiens) [compound 600]	″+++″ (≧50% = +++)
601 (SAFPFPVTV; listed as Homo sapiens) [compound 601]	″+++″ (≧50% = +++)
602 (YLLEQIKLIEV; listed as Homo sapiens) [compound 602]	″++++″ (≧75% = ++++)
604 (SILDRDDIFV; listed as Homo sapiens) [compound 604]	″+++″ (≧50% = +++)
605 (KLYEAVPQL; listed as Homo sapiens) [compound 605]	″+++″ (≧50% = +++)
606 (ALWETEVYI; listed as Homo sapiens) [compound 606]	″+++″ (≧50% = +++)
607 (RLYSGISGLEL; listed as Homo sapiens) [compound 607]	″+++″ (≧50% = +++)
608 (SLLSVSHAL; listed as Homo sapiens) [compound 608]	″+++″ (≧50% = +++)
609 (ALWKQLLEL; listed as Homo sapiens) [compound 609]	″+++″ (≧50% = +++)
610 (LLAPTPYIIGV; listed as Homo sapiens) [compound 610]	″+++″ (≧50% = +++)
611 (YLLDDGTLVV; listed as Homo sapiens) [compound 611]	″++++″ (≧75% = ++++)
612 (YLYNEGLSV; listed as Homo sapiens) [compound 612]	″+++″ (≧50% = +++)
613 (RLLPPGAVVAV; listed as Homo sapiens) [compound 613]	″+++″ (≧50% = +++)
614 (LLLPDQPPYHL; listed as Homo sapiens) [compound 614]	″+++″ (≧50% = +++)
615 (VLPPDTDPA; listed as Homo sapiens) [compound 615]	″++″ (≧20% = ++)
616 (VLIDEVESL; listed as Homo sapiens) [compound 616]	″+++″ (≧50% = +++)
617 (ALMYESEKVGV; listed as Homo sapiens) [compound 617]	″+++″ (≧50% = +++)
618 (VLFDSESIGIYV; listed as Homo sapiens) [compound 618]	″+++″ (≧50% = +++)
619 (ALQDRVPLA; listed as Homo sapiens) [compound 619]	″+++″ (≧50% = +++)
620 (KLLNKIYEA; listed as Homo sapiens) [compound 620]	″++++″ (≧75% = ++++)
621 (VLMDRLPSLL; listed as Homo sapiens) [compound 621]	″++++″ (≧75% = ++++)
622 (RLLGEEVVRVLQA; listed as Homo sapiens) [compound 622]	″+++″ (≧50% = +++)
623 (YLVEDIQHI; listed as Homo sapiens) [compound 623]	″+++″ (≧50% = +++)
635 (SLDSTLHAV; listed as Homo sapiens) [compound 635]	″+++″ (≧50% = +++)
